Tests used:
FadR_vc = FadR_vc (Vibrio cholerae, UniProt Q9KQU8 1-279); test: EMSA
FadR_ec = FadR_ec (Escherichia coli, UniProt P0A8V6 1-239); test: EMSA
Sequence of FadR_ec (P0A8V6 whole entry): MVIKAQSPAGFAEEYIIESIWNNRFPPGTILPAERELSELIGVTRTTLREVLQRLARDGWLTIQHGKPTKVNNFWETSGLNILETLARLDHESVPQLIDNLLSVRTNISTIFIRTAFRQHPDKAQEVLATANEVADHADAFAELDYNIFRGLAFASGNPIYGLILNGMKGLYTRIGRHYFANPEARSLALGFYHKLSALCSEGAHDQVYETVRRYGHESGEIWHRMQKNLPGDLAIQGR

Sequence of FadR_vc (Q9KQU8 whole entry): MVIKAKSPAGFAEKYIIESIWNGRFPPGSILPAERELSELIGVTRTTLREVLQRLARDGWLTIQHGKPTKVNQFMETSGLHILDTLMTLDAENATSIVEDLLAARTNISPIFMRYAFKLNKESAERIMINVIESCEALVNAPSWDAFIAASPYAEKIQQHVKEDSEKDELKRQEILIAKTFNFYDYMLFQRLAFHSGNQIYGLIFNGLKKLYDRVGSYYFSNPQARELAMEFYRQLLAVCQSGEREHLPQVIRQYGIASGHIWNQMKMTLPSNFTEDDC

B1: plsB_vc FadR site probe (39 bp) (dsDNA)
DNA 1: TTAAATTAAAAGGTTTGACCAGTTTCTGGTATTCTTGGC
DNA 2: GCCAAGAATACCAGAAACTGGTCAAACCTTTTAATTTAA
binding result (FadR_vc): binds | binding result (FadR_ec): binds
